Measurements from patent US20150266963A1 (ARGEN X B V, published 2015).
Numbering of substitutions follows the chain as printed. Like-named read-outs stand apart in the source and are kept apart here.

B1: 59D10 chimeric llama-human mAb (antibody, human IgG1, V domains shown)
VH: EVQLVESGGGLVQPGGSLRLSCAASELSFSISEMTWVRQAPGKGLEWVSGISGVTGGSSTSYADSVKGRFTISRDNDKNTLYLQMNSLIPEDTAVYYCATTSGTYYFIPEYEYWGQGTQVTVSS
VL: QSVLTQPPSVSGSPGKTVTISCAGTSSDVGYGYYVSWYQQFPGMAPKLLIYDVNKRASGIADRFSGSKAGNTASLTISGLQSEDEADYYCASYRSSANAVFGGGTHLTVLG
B2: 9G2 chimeric llama-human mAb (antibody, human IgG1, V domains shown)
VH: QVQLVESGGGLMQPGGSLRLSCAASGFTFSSSAMSWVRQAPGKGLEWVSSIYSDSSYTYYADSVKSRFTISTDNAKNTLYLQMNSLKPDDTAVYYCAGSSDYEGSFASWGQGTQVTVSS
VL: QSVVTQPPSLSASPGSSVRLTCTLSSGNSVGNYDISWYQQKAGSPPRYLLYYYSDSVKHQGSGVPSRFSGSSDASANAGLLLISGLQPEDEADYYCSAYKSGSHVFGGGTKLTVLG
B3: 4D2 chimeric llama-human mAb (antibody, human IgG1, V domains shown)
VH: QVQLQESGPGLVKPSQTLSLACTVSGGSITTSYYYWSWIRQPPGKGLEWMGAIGSRGSTYYSPSLKTRTSISRDTSKNQFTLQLSSVTPEDTAVYYCARVTGEITYNSGSYYYTLNLFDYWGQGTQVTVSS
VL: QSVLTQPPSLSASPGSSVRLTCTLSSGNSVGNYDISWYQQKAGSPPRYLLYYYSDSYKNQGSGVPSRFSGSKDPSANAGLLLISGLQAEDEADYYCSVSNSGTYKPVFGGGSKLTVLG
B4: 9D1 chimeric llama-human mAb (antibody, human IgG1, V domains shown)
VH: EVQLVESGGGLVQPGGSLRLSCAASGFTFSVYYMNWVRQAPGKGLEWVSDINNEGGTTYYADSVKGRFTISRDNAKNTLTLQMNSLKPEDTALYYCVRDAGYSNHVPIFDSWGQGTQVIVAS
VL: QAVVTQEPSLSVSPGGTVTLTCGLSSGSVTSSHYPGWYQQTPGQAPRLLIFNTNSRHSGVPSRFSGSISGNKAALTITGAQPEDEADYYCALLNIDDGSTMFGGGTHLTVLG
notes: also called mAb 9D1
B5: 27B3 Fab (Fab, V domains shown)
VH: B4 VH
VL: QAVVTQEPSLTVSPGGTVTLTCGLKSGSVTSTNFPTWYQQTPGQAPRLLIYNTNTRHSGVPSRFSGSISENKAALTITGAQPEDEAEYFCALFISNPSVEFGGGTQLTVLS
notes: Llama-derived Fab; also called Fab 27B3
B6: 53H1 mAb (full-length human IgG1, HEK293) (antibody, V domains shown)
VH: B4 VH with A75S, T78S, T80Y, K87R, P88A, L93V, V97A, Q117L, I119T, A121S
VL: B5 VL with A2T, L10F, T11S, T32D, S62D, S69L, E70G, P82A, E83D, S111G
B7: 19G10 chimeric llama-human mAb (antibody, human IgG1, V domains shown)
VH: EVQLQESGGGVVQPGGSLRLSCAASGFTFDDYAMSWVRQAPGKGLEWVSSIYMYDSSTYYADSVKGRFTISTDNAKNTVYLQMNSLKSEDTAVYYCAKDINRSYGSSWSHFGPIFSSWGQGTQVTVSS
VL: NFMLTQPSAVSVSLGQTARITCQGGYYTHWYQQKPGQAPVLVIYVNNNRPSGIPERFSGSSSGNTATLTISGAQAEDEAAYYCQSGSSSTIPVFGGGTKLTVLG
B8: 9E1 chimeric llama-human mAb (antibody, human IgG1, V domains shown)
VH: B7 VH
VL: QAVVTQEPSLSVSPGGTVTLTCGLTSGSVTSSNYPDWYQQTPGQAPRLLIYNTNSRHSGVPSRFSGSISGNKAALTITGAQPEDEADYYCNLYMGSGGSKVFGGGTKLTVLG
B9: 5F4 chimeric llama-human mAb (antibody, human IgG1, V domains shown)
VH: EVQVQESGGGLVHPGGSLKLSCAASGFTFDTYAMSWVRQAPGKGLEWVSAISWSGGETFYAESMKGRFTISRNNAKNTLYLQMNSLKSEDTAVYYCARGMGLAEGLTDWGQGTQVTVSS
VL: QAVVTHPPSLSASPGSSVRLTCTLISGDNIGGYDISWYQQKTGSPPRYLLYYYSDSYKHQSSGVPSRFSGSKDASANAGLLLISGLQSEDEADYYCSAYKSGSYKAPVFGGGTHLTVLG
B10: 6D5 (antibody, V domains shown)
VH: EVQLVQPGAELRKPGASVKVSCKASGYTFTSYYIDWVRQAPGQGLEWMGRIDPEDGGTKYAQKFQGRVTFTADASTSTAYVELSSLRSEDTAVYYCASRRRDFDYWGQGTQVTVSS
VL: QSALTQPSAVSVSLGQTARITCQGGNARFSSFAWYQQKPGQAPVQVIYYNTNRPSGIPARFSGSSSGGAATLTISGAQAEDEADYYCQSYESGNYVFGGGTTLTVLG
notes: the mAb format of 6D5 is not described in the text; also called 6D5 mAb

Key:
[1] = molecular target: T1, human CD70 expressed on the surface of cells (human, UniProt P32970 1-193); test: cell-based or functional assay
T1 sequence (looked up): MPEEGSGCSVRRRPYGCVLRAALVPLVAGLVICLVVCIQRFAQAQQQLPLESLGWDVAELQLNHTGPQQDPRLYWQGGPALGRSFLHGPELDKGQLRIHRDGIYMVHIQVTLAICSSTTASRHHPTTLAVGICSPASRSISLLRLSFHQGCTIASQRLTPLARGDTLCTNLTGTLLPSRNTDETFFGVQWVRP

[2] = molecular target: T1, human CD70 expressed on the surface of …; test: flow cytometry on MHH-PREB-1 cells; anti-human IgG-FITC
Experimental: In a further experiment, NHL-derived MHH-PREB-1 cells (1W cells) were incubated with a concentration gradient of chimeric llama-human CD70 inhibiting mAbs (20 μg/ml-0.25 ng/ml) and binding of the mAbs to the cells was detected using anti-human IgG-FITC antibody.

[3] = molecular target: T2, recombinant human CD70 (Flag-TNC-CD70) (human, UniProt P32970 39-193); test: inhibition ELISA; Flag-TNC-CD70 captured by anti-Flag mAb; competitor CD27-Fc
T2 construct: extracellular domain; Captured by anti-Flag mAb in ELISA; as 'recombinant human CD70' immobilised on Biacore CM5 chips; TNC is for trimerisation; also called recombinant CD70; human recombinant CD70; not shown: Flag tag and TNC trimerisation domain
T2 sequence (looked up): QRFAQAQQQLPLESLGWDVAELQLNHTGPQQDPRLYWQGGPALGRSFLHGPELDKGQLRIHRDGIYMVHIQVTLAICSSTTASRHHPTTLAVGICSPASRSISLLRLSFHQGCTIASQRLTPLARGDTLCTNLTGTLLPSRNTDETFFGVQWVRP
Experimental: (§1) From selected phage transfected into TG1, individual colonies were picked randomly for growth in 96 well plates. After IPTG induction according to standard protocols periplasmic fractions (penis) containing Fabs were prepared. […] In this assay, Flag-TNC-CD70 is captured by an anti-Flag mAb and binding of CD27-Fc is detected via a biotinylated anti-CD27 mAb and strep-HRP in the absence or presence of CD70 Fabs (FIGS. 2 and 3) or CD70 mAbs (FIG. 4). In FIG. 2B it can be seen that 27B3, which has an identical VH as 9D1, but contains a somewhat different light chain, seems to block binding of CD27 to CD70 more efficiently, which was in line with the better off rate of this Fab as measured on Biacore (data not shown). Table 3 indicates the blocking potency (expressed as IC50) for the various llama-human chimeric mAbs tested in the CD70 inhibition ELISA. […] FIG. 3 is a composite of an experiment testing llama CD70 Fabs for blocking activity (in the inhibition ELISA, see white bars) and for CD70 binding (binding ELISA, black bars). For the binding ELISA, Flag-TNC-CD70 is captured by an anti-Flag mAb and binding of the Fabs is detected using an anti-myc-HRP mAb, which recognizes the MYC tag fused to the C-terminus of the Fd fragment. For comparison purposes, known monoclonal antibodies to CD70 (SGN70 described in US 2010/0129362 A1, clone 1F6; and MDX69A7 described in WO2008/074004 FIGS. 5A and 5B) were tested in parallel. […] Of interest is clone 59D10, which as Fab has no blocking activity, but when converted into a chimeric IgG was antagonistic (see Table 3). Amino acid sequences of the VH and VL domains of binding and blocking llama-derived Fab clones are shown elsewhere herein (Tables 6-9).

[4] = molecular target: T1, human CD70 expressed on the surface of …; test: flow cytometry on 786-O cells, anti-human Fc-FITC
Experimental: Fluorescence of 10,000 cells/condition was measured using a flow cytometer and the median fluorescence was plotted.

[5] = molecular target: T1, human CD70 expressed on the surface of …; test: cell-based or functional assay; remark: listed apart in the source
[6] = molecular target: T2, recombinant human CD70 (Flag-TNC-CD70); test: inhibition ELISA; Flag-TNC-CD70 captured by anti-Flag mAb; competitor CD27-Fc; remark: listed apart in the source
Experimental: as §1

[7] = molecular target: T2, recombinant human CD70 (Flag-TNC-CD70); test: Biacore; recombinant human CD70 on CM5 chip; Fab injected
Procedure, shortened: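 Recombinant human CD70 amine-coupled to CM5 chip (~1000 RU). Trypsin-derived Fabs diluted 6-fold in HEPES-buffered saline with P20 injected at 30 μl/min; dissociation followed 10 minutes, surfaces regenerated with 10 mM NaOH; off-rates fitted after blank subtraction. CD27 off-rate from CD70 measured likewise.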

[8] = molecular target: T2, recombinant human CD70 (Flag-TNC-CD70); test: Biacore; CD70 coated CM5 chip; Fab in periplasmic fraction
Experimental: Phage eluted from rounds 3, 4 and 5 of selection were transfected into TG1 and plated clonally; individual clones were picked randomly for further analysis. Periplasmic fractions containing Fabs were prepared from IPTG induced small scale cultures the off rate of each Fab was determined using a CD70 coated CM5 chip in a Biacore binding assay. Clones with Fab having off rates similar to that of 27B3 were sequenced.

[9] = molecular target: T1, human CD70 expressed on the surface of …; test: cell-based or functional assay; remark: listed apart in the source
[10] = molecular target: T3, heat denatured recombinant CD70 (human, UniProt P32970 52-193, limits assumed); test: ELISA on coated heat denatured recombinant CD70, anti-human IgG-HRP
T3 construct: Same recombinant CD70 as m1, denatured by heating for 5 minutes at 95 C and cooling on ice, coated directly on the plate; also called denatured CD70; not shown: Flag tag (anti-Flag mAb was the coating control) and further fusion parts
T3 sequence (looked up): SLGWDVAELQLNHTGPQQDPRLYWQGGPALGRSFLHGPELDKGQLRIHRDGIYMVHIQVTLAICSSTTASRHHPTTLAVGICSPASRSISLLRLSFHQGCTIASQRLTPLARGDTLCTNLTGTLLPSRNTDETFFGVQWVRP
Experimental: The binding of CD70 mAbs to denatured recombinant CD70 was assessed by ELISA. Recombinant CD70 was denatured by heating for 5 minutes at 95° C., followed by immediate cooling on ice for 5 minutes. A microtiter plate was coated with 5 μg/ml CD70 with or without denaturation. The plate was blocked and the CD70 mAbs for testing were applied at 10 μg/ml. After washing, binding of the mAbs was detected using anti-human IgG-HRP. As a positive control for the coating, instead of using the CD70 mAbs, an anti-Flag mouse-derived mAb was applied and detection was with anti-mouse-HRP. TMB was used as a substrate and OD at 620 nm was measured. […] Amongst the other mAbs, some are also binding to denatured CD70 (fe 5F4, 9G2, 57B6).

Row | Binder | IC50 (ng/ml), IL-8 secretion in Raji / HT1080-CD27 co-culture assay [1] [ng/mL] | IC50 [3] [µg/mL] | EC50 (read off the curve) [4] [µg/mL] | binding result [10] | other results
1 | B1 | 10 | 0.107 |  |  | EC50 [2]: 0.074 µg/mL
2 | B2 | 3 | 0.04 | ~0.1 |  | IC50, IL-8 secretion in Raji / HT1080-CD27 co-culture assay [5]: 0.02 nM
3 | B3 | 54 | 0.254 | ~0.06 |  | 
4 | B4 | 29 | 0.109 | ~0.03 |  | IC50 [6]: 0.73 nM
5 | B5 |  |  |  |  | koff [7]: 8e-05 s⁻¹; IC50 [6]: ~0.4 nM; koff [8]: 0.00014 s⁻¹
6 | B6 |  |  |  |  | Raji co-culture assay IC50 relative to 27B3 [9]: 1.6 fold of 27B3
7 | B7 | 16 | 0.075 |  | no binding (tested: 10 µg/ml (text)) | 
8 | B8 | 517 | 1.4 |  | no binding (tested: 10 µg/ml (text)) | 
9 | B9 | 32 | 0.296 | ~0.2 |  | 
10 | B10 |  |  |  | no binding (tested: 10 µg/ml (text)) | 
